The source of these data is publication PMC8568920 (2021).

The target in the experiment is biotinylated lysocin E derivative, natural type (biotin (position not given); fatty acid chain moiety). The experiment is described as follows: BLI.

B1: recombinant human apolipoprotein A-I ∆NM variant (domain or fragment)
chain: PVTQEFWDNLEKETEGLRQEMSKDLEEVKAKVQPYLDDFQKKWQEEMELYRQKVEPLRAELQEGARQKLHELQEKLSPLGTHLAPYSDELRQRLAARLEALKENGGARLAEYHAKATEHLSTLSEKAKPALEDLRQGLLPVLESFKVSFLSALEEYTKKLNTQ
The molecule B1 registered a Kd of 5.6 µM.
